{"source": "paper PMC5436742", "about": "“Structural models of the different trimers present in the core of phycobilisomes from Gracilaria chilensis based on crystal structures and sequences” (PLoS ONE, 2017)", "target": "the molecule itself", "test": "SEC; 50 μL of 1 mg/mL purified APC on Superdex200 HR/30, 5 mM phosphate buffer pH7, 0.5 ml/min, calibrated with BioRad standards, elution followed at 651 and 280 nm", "data": [{"protein": "Allophycocyanin αβ heterodimer from Gracilaria chilensis (complex, phycocyanobilin bound to cysteine 81 | phycocyanobilin bound to cysteine 81; methyl-Asn71 (Asm71), Allophycocyanin α subunit (gene apcA), Gracilaria chilensis; 161 residues; as the chain of m1; Allophycocyanin β subunit (gene apcB), Gracilaria chilensis; as the chain of m2; The αβ heterodimer is the unit that associates with itself into the trimer (αβ)3; also called APC; heterodimer αβ; source: purified from Gracilaria chilensis (method in S4 File)) chain 1: MSIITKSIVNADAEARYLSPGELDRIKSFVLSGQRRLRIAQILTDNRELIVKQGGQQLFQKRPDVVSPGGNAYGEEMTATCLRDLDYYLRLVTYGIVAGDVTPIEEIGLVGVKEMYNSLGTPISGVAEGVRSMKNVACSLLAGEDSAEAGFYFDYTLGAMQ chain 2: MQDAITSVINAADVQGRYLDDNSLDKLRGYFQTGELRVRASATIAANAATIIKDSVAKALLYSDITRPGGNMYTTRRYAACIRDLDYYLRYATYGMLAGDPSILDERVLNGLKETYNSLGVPIGATIQAVQAMKEVTSSLVGPDAGKEMGVYFDYICSGLS", "values": [{"measurement": "stoichiometry N", "result": 3}]}]}
